Test results from the supplement of paper PMC10724198.
± gives the standard deviation of the averaged measurements.

Assays:
Saccharomyces cerevisiae [1] = test: protein stability index of tFT-peptide fusion (C-terminal peptide) (PSI (0-1 scale)); higher = more stable (slower turnover)
Description: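 MPS profiling in S. cerevisiae of the tFT-X12 degron library: putative degron peptides plus stable controls, 12 aa, fused to the C-terminus of a sfGFP-mCherry timer. Cells are FACS-sorted into 8 mCherry/sfGFP bins and deep-sequenced. PSI runs from 0 (unstable) to 1 (stable). Backgrounds are wild type, das1Δ and doa10Δ at 30 °C, and wild type, das1Δ, cdc34-1 and cdc53-1 at 37 °C; 2-3 technical replicates each.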

Saccharomyces cerevisiae [2] = test: as above; conditions: genetic background: wild type; temperature: 30 C
[3] = genetic background: cdc34-1, temperature: 37 C
[4] = genetic background: cdc53-1, temperature: 37 C
[5] = genetic background: das1 deletion, temperature: 30 C
[6] = genetic background: das1 deletion, temperature: 37 C
[7] = genetic background: doa10 deletion, temperature: 30 C
[8] = genetic background: wild type, temperature: 30 C
[9] = genetic background: wild type, temperature: 37 C
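Also: PSI is a weighted mean of sequencing reads over stability bins, variants kept only with over 10 reads, mCherry proximal and sfGFP distal, peptide attached via GGGS linker.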

Row | Sequence | protein stability index (Saccharomyces cerevisiae [1]; [3]) | protein stability index (Saccharomyces cerevisiae [1]; [4]) | protein stability index (Saccharomyces cerevisiae [1]; [5]) | protein stability index (Saccharomyces cerevisiae [1]; [6]) | protein stability index (Saccharomyces cerevisiae [1]; [7]) | protein stability index (Saccharomyces cerevisiae [1]; [8]) | protein stability index (Saccharomyces cerevisiae [1]; [9]) | protein stability index (Saccharomyces cerevisiae [2])
1 | ACGGGSNVHRAG | 0.665 ± 0.028 | 0.7248 ± 0.0067 | 0.657 ± 0.019 | 0.767 ± 0.021 | 0.662 ± 0.045 | 0.66 ± 0.018 | 0.75211 ± 0.00044 | 0.747 ± 0.012
2 | ACVRLVLCVCRV | 0.281 ± 0.011 | 0.341 ± 0.042 | 0.237 ± 0.04 | 0.4091 ± 0.0036 | 0.211 ± 0.015 | 0.225 ± 0.028 | 0.375 ± 0.02 | 0.339 ± 0.0039
3 | ACVWVVALVWVF | 0.121 ± 0.005 | 0.249 ± 0.041 | 0.174 ± 0.035 | 0.303 ± 0.015 | 0.132 ± 0.0086 | 0.153 ± 0.01 | 0.243 ± 0.009 | 0.213 ± 0.016
4 | AEVLCEIVIALR | 0.582 ± 0.011 | 0.675 ± 0.063 | 0.485 ± 0.04 | 0.583 ± 0.0085 | 0.45 ± 0.019 | 0.48 ± 0.038 | 0.543 ± 0.018 | 0.523 ± 0.043
5 | AFFFCVVVLFSF | 0.194 ± 0.0078 | 0.233 ± 0.013 | 0.171 ± 0.027 | 0.289 ± 0.015 | 0.178 ± 0.018 | 0.176 ± 0.041 | 0.256 ± 0.054 | 0.182 ± 0.044
6 | AFFRCKCYVGTP | 0.568 ± 0.011 | 0.584 ± 0.046 | 0.502 ± 0.017 | 0.598 ± 0.013 | 0.512 ± 0.013 | 0.495 ± 0.0099 | 0.561 ± 0.025 | 0.511 ± 0.057
7 | AFTFLLCWLFGV | 0.622 ± 0.024 | 0.671 ± 0.01 | 0.552 ± 0.018 | 0.627 ± 0.0065 | 0.453 ± 0.0068 | 0.454 ± 0.016 | 0.585 ± 0.041 | 0.467 ± 0.054
8 | AFVALCACVIFV | 0.175 ± 0.015 | 0.249 ± 0.026 | 0.215 ± 0.039 | 0.362 ± 0.005 | 0.178 ± 0.016 | 0.202 ± 0.026 | 0.302 ± 0.0078 | 0.302 ± 0.025
9 | AGGVNWWSSWRV | 0.739 ± 0.049 | 0.767 ± 0.0082 | 0.648 ± 0.015 | 0.775 ± 0.011 | 0.6591 ± 0.0032 | 0.669 ± 0.014 | 0.78 ± 0.037 | 0.7454 ± 0.006
10 | AGMLMCLYLFFV | 0.562 ± 0.05 | 0.661 ± 0.047 | 0.467 ± 0.032 | 0.598 ± 0.022 | 0.428 ± 0.0066 | 0.449 ± 0.028 | 0.5673 ± 0.0029 | 0.468 ± 0.027
11 | AIMFLVLGYVFF | 0.262 ± 0.085 | 0.395 ± 0.018 | 0.269 ± 0.03 | 0.462 ± 0.019 | 0.255 ± 0.036 | 0.276 ± 0.027 | 0.452 ± 0.019 | 0.378 ± 0.034
12 | ALCPPLPMLVVA | 0.02987 ± 0.00016 | 0.03 ± 0.0043 | 0.156 ± 0.019 | 0.0912 ± 0.0067 | 0.109 ± 0.01 | 0.137 ± 0.03 | 0.0758 ± 0.0021 | 0.2097 ± 0.00085
13 | ALLMVCFGFSLV | 0.445 ± 0.022 | 0.5162 ± 0.0013 | 0.372 ± 0.032 | 0.527 ± 0.0098 | 0.335 ± 0.009 | 0.367 ± 0.02 | 0.508 ± 0.0078 | 0.422 ± 0.01
14 | ALNFFSLFMLFR | 0.221 ± 0.058 | 0.168 ± 0.07 | 0.325 ± 0.041 | 0.422 ± 0.022 | 0.603 ± 0.0092 | 0.325 ± 0.034 | 0.358 ± 0.022 | 0.398 ± 0.048
15 | ALSRFFSVFLLV | 0.592 ± 0.013 | 0.671 ± 0.009 | 0.55 ± 0.019 | 0.6766 ± 0.0044 | 0.26 ± 0.012 | 0.266 ± 0.03 | 0.454 ± 0.032 | 0.3814 ± 0.00064
16 | ASVCLNVIYQLV | 0.515 ± 0.024 | 0.451 ± 0.0053 | 0.288 ± 0.027 | 0.471 ± 0.013 | 0.1572 ± 0.0011 | 0.164 ± 0.018 | 0.222 ± 0.024 | 0.268 ± 0.036
17 | AVLFAPPLSSNF | 0.712 ± 0.03 | 0.78169 ± 0.00024 | 0.64 ± 0.014 | 0.7729 ± 0.0067 | 0.657 ± 0.026 | 0.6489 ± 0.0039 | 0.739 ± 0.0078 | 0.729 ± 0.052
18 | AVSFVTLSIMVM | 0.0451 ± 0.007 | 0.0958 ± 0.092 | 0.153 ± 0.016 | 0.163 ± 0.0065 | 0.135 ± 0.005 | 0.157 ± 0.018 | 0.1217 ± 0.0011 | 0.195 ± 0.032
19 | AWVEVYVISIGV | 0.192 ± 0.024 | 0.257 ± 0.0074 | 0.161 ± 0.022 | 0.324 ± 0.012 | 0.132 ± 0.0032 | 0.153 ± 0.011 | 0.2966 ± 0.0016 | 0.19 ± 0.032
20 | CAGLLSVSFWLF | 0.516 ± 0.024 | 0.589 ± 0.037 | 0.44 ± 0.033 | 0.597 ± 0.022 | 0.351 ± 0.0039 | 0.381 ± 0.017 | 0.552 ± 0.0056 | 0.499 ± 0.0012

Row | Sequence | protein stability index (Saccharomyces cerevisiae [1]; [3]) | protein stability index (Saccharomyces cerevisiae [1]; [4]) | protein stability index (Saccharomyces cerevisiae [1]; [5]) | protein stability index (Saccharomyces cerevisiae [1]; [6]) | protein stability index (Saccharomyces cerevisiae [1]; [7]) | protein stability index (Saccharomyces cerevisiae [1]; [8]) | protein stability index (Saccharomyces cerevisiae [1]; [9]) | protein stability index (Saccharomyces cerevisiae [2])
21 | CFATTCLRCKWV | 0.692 ± 0.038 | 0.738 ± 0.035 | 0.645 ± 0.033 | 0.739 ± 0.028 | 0.425 ± 0.011 | 0.459 ± 0.022 | 0.631 ± 0.027 | 0.484 ± 0.014
22 | CFCVSVHVWLLM | 0.112 ± 0.028 | 0.238 ± 0.046 | 0.199 ± 0.038 | 0.342 ± 0.017 | 0.0493 ± 0.017 | 0.069 ± 0.018 | 0.105 ± 0.017 | 0.147 ± 0.04
23 | CFFLLLRVSLFP | 0.08149 ± 0.00038 | 0.112 ± 0.024 | 0.143 ± 0.032 | 0.257 ± 0.0087 | 0.142 ± 0.0027 | 0.145 ± 0.025 | 0.218 ± 0.011 | 0.239 ± 0.028
24 | CFSLLFYTLSLL | 0.47 ± 0.029 | 0.499 ± 0.0054 | 0.393 ± 0.022 | 0.5305 ± 0.0034 | 0.2695 ± 0.00095 | 0.274 ± 0.021 | 0.409 ± 0.0057 | 0.351 ± 0.018
25 | CFVICVCLCFGR | 0.229 ± 0.044 | 0.3626 ± 0.002 | 0.232 ± 0.018 | 0.416 ± 0.015 | 0.206 ± 0.0033 | 0.21 ± 0.026 | 0.371 ± 0.0092 | 0.35 ± 0.025
26 | CGSLDLPHQCLL | 0.7247 ± 0.0066 | 0.7844 ± 0.0062 | 0.677 ± 0.0093 | 0.7545 ± 0.0062 | 0.691 ± 0.048 | 0.693 ± 0.01 | 0.774 ± 0.0033 | 0.744 ± 0.059
27 | CICAFCSLNLLC | 0.695 ± 0.01 | 0.774 ± 0.016 | 0.61 ± 0.012 | 0.765 ± 0.011 | 0.289 ± 0.0064 | 0.324 ± 0.023 | 0.607 ± 0.013 | 0.435 ± 0.011
28 | CIHMNCSMMIIS | 0.0533 ± 0.045 | 0.084 ± 0.0027 | 0.168 ± 0.0061 | 0.0659 ± 0.029 | 0.169 ± 0.0045 | 0.132 ± 0.036 | 0.0482 ± 0.035 | 0.135 ± 0.0034
29 | CKGPPVKFIVLM | 0.614 ± 0.018 | 0.7111 ± 0.0044 | 0.597 ± 0.03 | 0.7359 ± 0.0039 | 0.135 ± 0.0034 | 0.147 ± 0.028 | 0.243 ± 0.023 | 0.225 ± 0.057
30 | CKYCKCVVLLWS | 0.53 ± 0.052 | 0.605 ± 0.013 | 0.385 ± 0.037 | 0.6012 ± 0.00065 | 0.2932 ± 0.0013 | 0.334 ± 0.034 | 0.536 ± 0.01 | 0.434 ± 0.037
31 | CLFFLVYELSIL | 0.256 ± 0.017 | 0.352 ± 0.048 | 0.257 ± 0.023 | 0.434 ± 0.016 | 0.2162 ± 0.00051 | 0.246 ± 0.0069 | 0.387 ± 0.0045 | 0.317 ± 0.021
32 | CLQYRACLILLT | 0.406 ± 0.014 | 0.3653 ± 0.0014 | 0.365 ± 0.015 | 0.494 ± 0.0041 | 0.456 ± 0.0093 | 0.343 ± 0.015 | 0.425 ± 0.0086 | 0.425 ± 0.0091
33 | CLSGPFRSLAVF | 0.545 ± 0.029 | 0.6286 ± 0.0025 | 0.485 ± 0.031 | 0.6326 ± 0.0051 | 0.341 ± 0.009 | 0.365 ± 0.023 | 0.5263 ± 0.0018 | 0.425 ± 0.038
34 | CMILVACFYLPS | 0.285 ± 0.033 | 0.441 ± 0.061 | 0.29 ± 0.024 | 0.455 ± 0.017 | 0.248 ± 0.0063 | 0.294 ± 0.017 | 0.428 ± 0.01 | 0.321 ± 0.004
35 | CMYTILRHKINN | 0.628 ± 0.047 | 0.621 ± 0.075 | 0.649 ± 0.024 | 0.763 ± 0.023 | 0.129 ± 0.036 | 0.147 ± 0.058 | 0.279 ± 0.029 | 0.296 ± 0.054
36 | CPVSRHLLVLYW | 0.413 ± 0.0094 | 0.4424 ± 0.0029 | 0.345 ± 0.029 | 0.4933 ± 0.0031 | 0.402 ± 0.017 | 0.331 ± 0.019 | 0.47 ± 0.012 | 0.432 ± 0.029
37 | CQVSEWIRYRFL | 0.681 ± 0.074 | 0.743 ± 0.01 | 0.637 ± 0.034 | 0.734 ± 0.018 | 0.247 ± 0.0032 | 0.252 ± 0.0098 | 0.386 ± 0.016 | 0.417 ± 0.02
38 | CRAAMYSFFLNF | 0.674 ± 0.063 | 0.75 ± 0.017 | 0.651 ± 0.037 | 0.7584 ± 0.0043 | 0.236 ± 0.0046 | 0.299 ± 0.0089 | 0.529 ± 0.022 | 0.427 ± 0.025
39 | CRLFFVFVFFWW | 0.22 ± 0.04 | 0.179 ± 0.024 | 0.253 ± 0.03 | 0.322 ± 0.0059 | 0.311 ± 0.01 | 0.249 ± 0.022 | 0.274 ± 0.023 | 0.253 ± 0.095
